The values below come from article PMC10359491, “Identification and characterization of aptameric inhibitors of human neutrophil elastase”.

Data set [1] addresses T1, human neutrophil elastase (HNE) (Homo sapiens, UniProt P08246 30-267). Briefly: enzyme inhibition. The note with it: elastin-Congo red, 90% for E6 and E12, ELISA: PBS pH 7.4, 5 mM MgCl2, 10 mM KCl, 0.01% Tween 20, 20 min (temperature not stated), inhibition: 50 mM Tris pH 7.5, 150 mM NaCl, 5 mM MgCl2, 0.
Data set [2] concerns the target T1, human neutrophil elastase (HNE). Briefly: enzyme inhibition; DQ gelatin substrate; competitive; ELISA: PBS pH 7.4, 5 mM MgCl2, 10 mM KCl, 0.01% Tween 20, 20 min (temperature not stated); inhibition: 50 mM Tris pH 7.5, 150 mM NaCl, 10 mM KCl, 5 mM MgCl2, 0.02% Tween 20, 37 C. The note with it: protein: commercial, label: biotin (ELISA).
Data set [3] shares this target. The data set can be described thus: enzyme inhibition; elastin-Congo red, 100 nM HNE; E6/E12 values swapped in a second sentence; ELISA: PBS pH 7.4, 5 mM MgCl2, 10 mM KCl, 0.01% Tween 20, 20 min (temperature not stated); inhibition: 50 mM Tris pH 7.5, 150 mM NaCl, 10 mM KCl, 5 mM MgCl2, 0.02% Tween 20, 37 C. The note with it: protein: commercial, label: biotin (ELISA).

Data set [4] has the same target. Briefly: ELISA; HNE immobilized; ELISA: PBS pH 7.4, 5 mM MgCl2, 10 mM KCl, 0.01% Tween 20, 20 min (temperature not stated); inhibition: 50 mM Tris pH 7.5, 150 mM NaCl, 10 mM KCl, 5 mM MgCl2, 0.02% Tween 20, 37 C. The note with it: protein: commercial; for Kd: label: biotin (ELISA).
[5] abbreviates: predicted: 2 G4, 2 hairpin loops (not tested).
Where [6] appears, read: predicted: 1 G4, 3 hairpin loops (not tested).

T1 sequence (P08246 30-267): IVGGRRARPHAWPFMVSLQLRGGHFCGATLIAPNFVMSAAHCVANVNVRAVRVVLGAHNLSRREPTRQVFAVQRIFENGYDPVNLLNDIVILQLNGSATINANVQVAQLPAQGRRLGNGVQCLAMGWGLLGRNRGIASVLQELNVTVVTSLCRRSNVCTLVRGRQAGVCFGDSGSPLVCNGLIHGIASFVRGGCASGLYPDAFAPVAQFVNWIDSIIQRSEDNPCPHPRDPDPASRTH

In data set [1], dsDNA 24-mer showed a binding signal of 10 % inhibition.

B1: aptamer E12 (ssDNA)
DNA: CATGCTTCCCCAGGGAGATGGGCGTGGGGGTTGGGTATGGTGCTTGAGGGGCCTGGAGGAACATGCGTCGCAAAC
Turning to B1, the Ki in data set [2] (setting [5]) was 22 ± 1 nM. Besides, the IC50 in data set [3] (setting [5]) was 178 nM. In data set [4] (setting [5]), the Kd was 13.9 nM.

B2: aptamer E6 (ssDNA)
DNA: CATGCTTCCCCAGGGAGATGAGGACGGGCGTGGGGATGGGTATGGTGCAACTCCCGAGGAACATGCGTCGCAAAC
In the case of B2, the Ki in data set [2] (setting [6]) was 52 ± 6 nM. Further, the IC50 in data set [3] (setting [6]) is 173 nM. Further, the Kd in data set [4] (setting [6]) is 20.5 nM.

B3: NC nonspecific ssDNA (ssDNA)
DNA: CATGCTTCCCCAGGGAGATGAACCCTTTGGGAAACCCTTTGGGAAACCCTTTGGGGAGGAACATGCGTCGCAAAC
As for B3, in data set [4] (label: 5' biotin (ELISA)), the binding result was “no binding”.
